Legend:
[1] = target: T1, USE1 (purified, His-USE1) (Homo sapiens, UniProt Q9H832 1-354); experiment: ELONA titration
[2] = target: T1, USE1 (purified, His-USE1); experiment: equilibrium binding curve, one-site fit
[3] = target: T1, USE1 (purified, His-USE1); experiment: Ni-NTA and streptavidin pull-down
[4] = target: T1, USE1 (purified, His-USE1); experiment: fluorescence/quencher displacement

T1 sequence (Q9H832 whole entry): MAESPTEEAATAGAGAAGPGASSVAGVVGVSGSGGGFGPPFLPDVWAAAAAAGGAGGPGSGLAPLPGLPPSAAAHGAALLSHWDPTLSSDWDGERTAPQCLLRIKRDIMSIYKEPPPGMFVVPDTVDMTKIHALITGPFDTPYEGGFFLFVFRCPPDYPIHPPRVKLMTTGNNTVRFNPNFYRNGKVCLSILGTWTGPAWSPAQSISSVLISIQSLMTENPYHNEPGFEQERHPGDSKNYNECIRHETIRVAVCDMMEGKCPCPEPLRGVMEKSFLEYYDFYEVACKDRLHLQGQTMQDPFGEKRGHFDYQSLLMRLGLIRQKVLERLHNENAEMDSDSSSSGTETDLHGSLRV

| Binder | Kd [2] [nM] | also measured |
| --- | --- | --- |
| Aptamer 1 (ssDNA) DNA: CACCTAATACGACTCACTATAGCGGATCCGATGGGTGGGGGGGTGGGTAGGATCCGTTCGGGGTTTGGCATAGGGTCTGGCTCGAACAAGCTTGC | 10 ± 2.76 | Kd [1]: 7.2 ± 2.91 nM |
| Aptamer 2 (ssDNA) DNA: CACCTAATACGACTCACTATAGCGGACAGGGCTGGTGTGGCTGGCGTCCGGCTCGAACAAGGCTGGTGTGGCTGGCGTTCTGGCTCGAACAAGCTTGC | 32 ± 2.54 |  |
| CACCTAACACGATTCACTATAGCTCGGGGTTTGGCA (ssDNA) [Aptamer 1e] |  | binding result [3]: binds |
| Aptamer 1 fluorescence/quencher probe (mixed) DNA 1: CACCTAATACGACTCACTATAGCGGATCCGATGGGTGGGGGGGTGGGTAGGATCCGTTCGGGGTTTGGCATAGGGTCTGGCTCGAACAAGCTTGC DNA 2: GCAAGCTTGTTCGAGCCAG DNA 3: CCCTATGCCAAAC |  | binding result [4]: binds |
| Aptamer 3 (ssDNA) DNA: CACCTAATACGACTCACTATAGCGGATCCGACAGAATGCCATCACCATGTCTAGACCTATTGGCTTTGCGACTGGCTCGAACAAGCTTGC | 90 ± 2.42 |  |
